Source: PMC4337903, “Simian Virus Large T Antigen Interacts with the N-Terminal Domain of the 70 kD Subunit of Replication Protein A in the Same Mode as Multiple DNA Damage Response Factors” (PLoS ONE, 2015)

Legend:
[1] = biological target: RPA70N (aa 1-120 of RPA70) used for ITC and NMR (UniProt P27694); assay: ITC; 10 μl injections of 336 μM Tag(84-130) into 60 μM RPA70N in the cell; 25 mM Tris-Cl pH 7.5, 100 mM NaCl; single site model; average of three trials
[2] = biological target: T1, Simian virus 40 Large T-antigen (Tag), full length (Simian virus 40 (SV40), UniProt P03070 1-708); assay: pull-down; GST-RPA70N (WT or R41/43E) or GST on glutathione beads, purified full-length Tag as prey; 4°C, 30 mM HEPES KOH pH 7.8, 10 mM KCl, 7 mM MgCl2, 10 μM ZnCl2, 2% non-fat dry milk; washes with 75 mM KCl; blot with pAb101 and anti-GST; also without antibody or after pre-incubation of Tag with control non-immune IgG; settings: both partners purified
T1 construct: SV40 Large T antigen, full length; The methods tell the removal of GST from full-length Tag for 'ITC and NMR studies'; for the pull-down the legend says only 'purified as described in Materials and Methods'; also called Large Tumor Antigen; full-length Tag; source: Rosetta 2 cells, GST-tagged, purified (glutathione agarose), treated with H3C PreScission protease

Sequence of Tag(84-130), GST removed (domain or fragment) (P03070 84-130 limits assumed): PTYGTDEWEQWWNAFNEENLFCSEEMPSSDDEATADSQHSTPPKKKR

| Molecule | Kd [1] | binding result [2] |
| --- | --- | --- |
| Tag(84-130), GST removed (domain or fragment) | 1280 nM | – |
| GST-RPA70N (N-terminal domain of the 70 kDa subunit of Replication Protein A, residues 1-120) (domain or fragment, UniProt P27694 1-120, looked up, also called GST-RPA70N WT; source: Rosetta 2 cells, purified (glutathione agarose)) MVGQLSEGAIAAIMQKGDTNIKPILQVINIRPITTGNSPPRYRLLMSDGLNTLSSFMLATQLNPLVEEEQLSSNCVCQIHRFIVNTLKDGRRVVILMELEVLKSAEAVGVKIGNPVPYNE | – | binds |
